Experimental data taken from IntAct's records for PubMed 16294310.

B1: Acyl carrier protein (Escherichia coli (strain K12)), P0A6A8 (parent)
chain: MSTIEERVKKIIGEQLGVKQEEVTNNASFVEDLGADSLDTVELVMALEEEFDTEIPDEEAEKITTVQAAIDYINGHQA
partner: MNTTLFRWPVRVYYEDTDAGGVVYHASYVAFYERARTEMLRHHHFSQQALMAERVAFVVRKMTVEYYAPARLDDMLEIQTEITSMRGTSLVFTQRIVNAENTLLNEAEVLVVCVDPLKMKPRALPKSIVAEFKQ

Variants of: B1
Conditions: with ybgc_ecoli ybgC

Q: Which “effect of a mutation on the interaction” value does the source give for MSTIEERVKKIIGEQLGVKQEEVTNNASFVEDLGADCLDTVELVMALEEEFDTEIPDEEAEKITTVQAAIDYINGHQA [S37C] here?
A: disrupting interaction
